Assay results: patent US11965039B2, “Compstatin analogues and their medical uses” (priority 2018, dated 2024)
Starred links: 1 amine or outer side, 2 acyl side, 3 side chain; linkers in the order of their positions; H or OH if unused. Positions of bridges follow the written chain, without caps; N, C: chain ends. Non-standard residues stand in square brackets, D forms with d. Groups on a side chain read outwards from the residue. *: point of attachment. X1 = K(γGlu-G-γGlu-17-carboxy-heptadecanoyl), O=C(O)CCCCCCCCCCCCCCCCC(=O)N[C@@H](CCC(=O)NCC(=O)N[C@@H](CCC(=O)NCCCC[C@H](N[*:1])C(=O)[*:2])C(=O)O)C(=O)O; Trp(1-Me) = Cn1cc(C[C@H](N)C(=O)O)c2ccccc21; C18 diacid = O=C(O)CCCCCCCCCCCCCCCCC(=O)*; C16 diacid = O=C(O)CCCCCCCCCCCCCCC(=O)*; γGlu = O=C(O)[C@H](CCC(=O)[*:2])N[*:1]; AEEA = NCCOCCOCC(=O)O; Sar = CNCC(=O)O

B1: Compound 114 (peptide)
peptide: Ac-SEYCI[Trp(1-Me)]QDWGEHRC[Sar]EGEK([γGlu-Gly-γGlu-C18 diacid])-NH2
modifications: disulfide 4-14
SMILES: CC[C@H](C)[C@@H]1NC(=O)[C@@H](NC(=O)[C@H](Cc2ccc(O)cc2)NC(=O)[C@H](CCC(=O)O)NC(=O)[C@H](CO)NC(C)=O)CSSC[C@@H](C(=O)N(C)CC(=O)N[C@@H](CCC(=O)O)C(=O)NCC(=O)N[C@@H](CCC(=O)O)C(=O)N[C@@H](CCCCNC(=O)CC[C@H](NC(=O)CNC(=O)CC[C@H](NC(=O)CCCCCCCCCCCCCCCCC(=O)O)C(=O)O)C(=O)O)C(N)=O)NC(=O)[C@H](CCCNC(=N)N)NC(=O)[C@H](Cc2c[nH]cn2)NC(=O)[C@H](CCC(=O)O)NC(=O)CNC(=O)[C@H](Cc2c[nH]c3ccccc23)NC(=O)[C@H](CC(=O)O)NC(=O)[C@H](CCC(N)=O)NC(=O)[C@H](Cc2cn(C)c3ccccc23)NC1=O
B2: Compound 7 (peptide)
peptide: Ac-ICIWQKWGEHRCT-NH2
modifications: disulfide 2-12
SMILES: CC[C@H](C)[C@H](NC(C)=O)C(=O)N[C@H]1CSSC[C@@H](C(=O)N[C@H](C(N)=O)[C@@H](C)O)NC(=O)[C@H](CCCNC(=N)N)NC(=O)[C@H](Cc2c[nH]cn2)NC(=O)[C@H](CCC(=O)O)NC(=O)CNC(=O)[C@H](Cc2c[nH]c3ccccc23)NC(=O)[C@H](CCCCN)NC(=O)[C@H](CCC(N)=O)NC(=O)[C@H](Cc2c[nH]c3ccccc23)NC(=O)[C@H]([C@@H](C)CC)NC1=O
B3: Compound 132 (peptide)
peptide: Ac-SEFCI[Trp(1-Me)]QDWGEHRC[Sar]EK[γGlu]GGGK([γGlu-Gly-γGlu-C18 diacid])-NH2
modifications: disulfide 4-14
SMILES: CC[C@H](C)[C@@H]1NC(=O)[C@@H](NC(=O)[C@H](Cc2ccccc2)NC(=O)[C@H](CCC(=O)O)NC(=O)[C@H](CO)NC(C)=O)CSSC[C@@H](C(=O)N(C)CC(=O)N[C@@H](CCC(=O)O)C(=O)N[C@@H](CCCCN)C(=O)N[C@@H](CCC(=O)NCC(=O)NCC(=O)NCC(=O)N[C@@H](CCCCNC(=O)CC[C@H](NC(=O)CNC(=O)CC[C@H](NC(=O)CCCCCCCCCCCCCCCCC(=O)O)C(=O)O)C(=O)O)C(N)=O)C(=O)O)NC(=O)[C@H](CCCNC(=N)N)NC(=O)[C@H](Cc2c[nH]cn2)NC(=O)[C@H](CCC(=O)O)NC(=O)CNC(=O)[C@H](Cc2c[nH]c3ccccc23)NC(=O)[C@H](CC(=O)O)NC(=O)[C@H](CCC(N)=O)NC(=O)[C@H](Cc2cn(C)c3ccccc23)NC1=O
B4: Compound 131 (peptide)
peptide: Ac-SEFCI[Trp(1-Me)]QDWGEHRCTEGEGGGK([γGlu-Gly-γGlu-C16 diacid])-NH2
modifications: disulfide 4-14
SMILES: CC[C@H](C)[C@@H]1NC(=O)[C@@H](NC(=O)[C@H](Cc2ccccc2)NC(=O)[C@H](CCC(=O)O)NC(=O)[C@H](CO)NC(C)=O)CSSC[C@@H](C(=O)N[C@H](C(=O)N[C@@H](CCC(=O)O)C(=O)NCC(=O)N[C@@H](CCC(=O)O)C(=O)NCC(=O)NCC(=O)NCC(=O)N[C@@H](CCCCNC(=O)CC[C@H](NC(=O)CNC(=O)CC[C@H](NC(=O)CCCCCCCCCCCCCCC(=O)O)C(=O)O)C(=O)O)C(N)=O)[C@@H](C)O)NC(=O)[C@H](CCCNC(=N)N)NC(=O)[C@H](Cc2c[nH]cn2)NC(=O)[C@H](CCC(=O)O)NC(=O)CNC(=O)[C@H](Cc2c[nH]c3ccccc23)NC(=O)[C@H](CC(=O)O)NC(=O)[C@H](CCC(N)=O)NC(=O)[C@H](Cc2cn(C)c3ccccc23)NC1=O
B5: Compound 115 (peptide)
peptide: Ac-SEYCI[Trp(1-Me)]QDWGEHRC[Sar]EGKK([γGlu-Gly-γGlu-C18 diacid])-NH2
modifications: disulfide 4-14
SMILES: CC[C@H](C)[C@@H]1NC(=O)[C@@H](NC(=O)[C@H](Cc2ccc(O)cc2)NC(=O)[C@H](CCC(=O)O)NC(=O)[C@H](CO)NC(C)=O)CSSC[C@@H](C(=O)N(C)CC(=O)N[C@@H](CCC(=O)O)C(=O)NCC(=O)N[C@@H](CCCCN)C(=O)N[C@@H](CCCCNC(=O)CC[C@H](NC(=O)CNC(=O)CC[C@H](NC(=O)CCCCCCCCCCCCCCCCC(=O)O)C(=O)O)C(=O)O)C(N)=O)NC(=O)[C@H](CCCNC(=N)N)NC(=O)[C@H](Cc2c[nH]cn2)NC(=O)[C@H](CCC(=O)O)NC(=O)CNC(=O)[C@H](Cc2c[nH]c3ccccc23)NC(=O)[C@H](CC(=O)O)NC(=O)[C@H](CCC(N)=O)NC(=O)[C@H](Cc2cn(C)c3ccccc23)NC1=O
B6: Compound 129 (peptide)
peptide: Ac-SEFCI[Trp(1-Me)]QDWGEHRC[Sar]EGEGGGK([γGlu-Gly-γGlu-C18 diacid])-NH2
modifications: disulfide 4-14
SMILES: CC[C@H](C)[C@@H]1NC(=O)[C@@H](NC(=O)[C@H](Cc2ccccc2)NC(=O)[C@H](CCC(=O)O)NC(=O)[C@H](CO)NC(C)=O)CSSC[C@@H](C(=O)N(C)CC(=O)N[C@@H](CCC(=O)O)C(=O)NCC(=O)N[C@@H](CCC(=O)O)C(=O)NCC(=O)NCC(=O)NCC(=O)N[C@@H](CCCCNC(=O)CC[C@H](NC(=O)CNC(=O)CC[C@H](NC(=O)CCCCCCCCCCCCCCCCC(=O)O)C(=O)O)C(=O)O)C(N)=O)NC(=O)[C@H](CCCNC(=N)N)NC(=O)[C@H](Cc2c[nH]cn2)NC(=O)[C@H](CCC(=O)O)NC(=O)CNC(=O)[C@H](Cc2c[nH]c3ccccc23)NC(=O)[C@H](CC(=O)O)NC(=O)[C@H](CCC(N)=O)NC(=O)[C@H](Cc2cn(C)c3ccccc23)NC1=O
B7: Compound 8 (peptide)
peptide: Ac-ICIWQKWGAHRCTGAES-NH2
modifications: disulfide 2-12
SMILES: CC[C@H](C)[C@H](NC(C)=O)C(=O)N[C@H]1CSSC[C@@H](C(=O)N[C@H](C(=O)NCC(=O)N[C@@H](C)C(=O)N[C@@H](CCC(=O)O)C(=O)N[C@@H](CO)C(N)=O)[C@@H](C)O)NC(=O)[C@H](CCCNC(=N)N)NC(=O)[C@H](Cc2c[nH]cn2)NC(=O)[C@H](C)NC(=O)CNC(=O)[C@H](Cc2c[nH]c3ccccc23)NC(=O)[C@H](CCCCN)NC(=O)[C@H](CCC(N)=O)NC(=O)[C@H](Cc2c[nH]c3ccccc23)NC(=O)[C@H]([C@@H](C)CC)NC1=O
B8: Compound 138 (peptide)
peptide: Ac-SEFCI[Trp(1-Me)]QDWGEHRC[Sar]EGE-{AEEA-X1-NH2}
modifications: disulfide 4-14
SMILES: CC[C@H](C)[C@@H]1NC(=O)[C@@H](NC(=O)[C@H](Cc2ccccc2)NC(=O)[C@H](CCC(=O)O)NC(=O)[C@H](CO)NC(C)=O)CSSC[C@@H](C(=O)N(C)CC(=O)N[C@@H](CCC(=O)O)C(=O)NCC(=O)N[C@@H](CCC(=O)O)C(=O)NCCOCCOCC(=O)N[C@@H](CCCCNC(=O)CC[C@H](NC(=O)CNC(=O)CC[C@H](NC(=O)CCCCCCCCCCCCCCCCC(=O)O)C(=O)O)C(=O)O)C(N)=O)NC(=O)[C@H](CCCNC(=N)N)NC(=O)[C@H](Cc2c[nH]cn2)NC(=O)[C@H](CCC(=O)O)NC(=O)CNC(=O)[C@H](Cc2c[nH]c3ccccc23)NC(=O)[C@H](CC(=O)O)NC(=O)[C@H](CCC(N)=O)NC(=O)[C@H](Cc2cn(C)c3ccccc23)NC1=O
B9: Compound 134 (peptide)
peptide: Ac-EFCI[Trp(1-Me)]QDWGEHRCEGEK([γGlu-Gly-γGlu-C18 diacid])-NH2
modifications: disulfide 3-13
SMILES: CC[C@H](C)[C@@H]1NC(=O)[C@@H](NC(=O)[C@H](Cc2ccccc2)NC(=O)[C@H](CCC(=O)O)NC(C)=O)CSSC[C@@H](C(=O)N[C@@H](CCC(=O)O)C(=O)NCC(=O)N[C@@H](CCC(=O)O)C(=O)N[C@@H](CCCCNC(=O)CC[C@H](NC(=O)CNC(=O)CC[C@H](NC(=O)CCCCCCCCCCCCCCCCC(=O)O)C(=O)O)C(=O)O)C(N)=O)NC(=O)[C@H](CCCNC(=N)N)NC(=O)[C@H](Cc2c[nH]cn2)NC(=O)[C@H](CCC(=O)O)NC(=O)CNC(=O)[C@H](Cc2c[nH]c3ccccc23)NC(=O)[C@H](CC(=O)O)NC(=O)[C@H](CCC(N)=O)NC(=O)[C@H](Cc2cn(C)c3ccccc23)NC1=O
B10: Compound 133 (peptide)
peptide: Ac-SEFCI[Trp(1-Me)]QDWGEHRCTEK[γGlu]GGGK([γGlu-Gly-γGlu-C18 diacid])-NH2
modifications: disulfide 4-14
SMILES: CC[C@H](C)[C@@H]1NC(=O)[C@@H](NC(=O)[C@H](Cc2ccccc2)NC(=O)[C@H](CCC(=O)O)NC(=O)[C@H](CO)NC(C)=O)CSSC[C@@H](C(=O)N[C@H](C(=O)N[C@@H](CCC(=O)O)C(=O)N[C@@H](CCCCN)C(=O)N[C@@H](CCC(=O)NCC(=O)NCC(=O)NCC(=O)N[C@@H](CCCCNC(=O)CC[C@H](NC(=O)CNC(=O)CC[C@H](NC(=O)CCCCCCCCCCCCCCCCC(=O)O)C(=O)O)C(=O)O)C(N)=O)C(=O)O)[C@@H](C)O)NC(=O)[C@H](CCCNC(=N)N)NC(=O)[C@H](Cc2c[nH]cn2)NC(=O)[C@H](CCC(=O)O)NC(=O)CNC(=O)[C@H](Cc2c[nH]c3ccccc23)NC(=O)[C@H](CC(=O)O)NC(=O)[C@H](CCC(N)=O)NC(=O)[C@H](Cc2cn(C)c3ccccc23)NC1=O

molecular target: Human C3 (Complement tech cat #A113c) (human, UniProt P01024 23-1663); assay: cell-based or functional assay
Sequence (P01024 23-1663 limits assumed): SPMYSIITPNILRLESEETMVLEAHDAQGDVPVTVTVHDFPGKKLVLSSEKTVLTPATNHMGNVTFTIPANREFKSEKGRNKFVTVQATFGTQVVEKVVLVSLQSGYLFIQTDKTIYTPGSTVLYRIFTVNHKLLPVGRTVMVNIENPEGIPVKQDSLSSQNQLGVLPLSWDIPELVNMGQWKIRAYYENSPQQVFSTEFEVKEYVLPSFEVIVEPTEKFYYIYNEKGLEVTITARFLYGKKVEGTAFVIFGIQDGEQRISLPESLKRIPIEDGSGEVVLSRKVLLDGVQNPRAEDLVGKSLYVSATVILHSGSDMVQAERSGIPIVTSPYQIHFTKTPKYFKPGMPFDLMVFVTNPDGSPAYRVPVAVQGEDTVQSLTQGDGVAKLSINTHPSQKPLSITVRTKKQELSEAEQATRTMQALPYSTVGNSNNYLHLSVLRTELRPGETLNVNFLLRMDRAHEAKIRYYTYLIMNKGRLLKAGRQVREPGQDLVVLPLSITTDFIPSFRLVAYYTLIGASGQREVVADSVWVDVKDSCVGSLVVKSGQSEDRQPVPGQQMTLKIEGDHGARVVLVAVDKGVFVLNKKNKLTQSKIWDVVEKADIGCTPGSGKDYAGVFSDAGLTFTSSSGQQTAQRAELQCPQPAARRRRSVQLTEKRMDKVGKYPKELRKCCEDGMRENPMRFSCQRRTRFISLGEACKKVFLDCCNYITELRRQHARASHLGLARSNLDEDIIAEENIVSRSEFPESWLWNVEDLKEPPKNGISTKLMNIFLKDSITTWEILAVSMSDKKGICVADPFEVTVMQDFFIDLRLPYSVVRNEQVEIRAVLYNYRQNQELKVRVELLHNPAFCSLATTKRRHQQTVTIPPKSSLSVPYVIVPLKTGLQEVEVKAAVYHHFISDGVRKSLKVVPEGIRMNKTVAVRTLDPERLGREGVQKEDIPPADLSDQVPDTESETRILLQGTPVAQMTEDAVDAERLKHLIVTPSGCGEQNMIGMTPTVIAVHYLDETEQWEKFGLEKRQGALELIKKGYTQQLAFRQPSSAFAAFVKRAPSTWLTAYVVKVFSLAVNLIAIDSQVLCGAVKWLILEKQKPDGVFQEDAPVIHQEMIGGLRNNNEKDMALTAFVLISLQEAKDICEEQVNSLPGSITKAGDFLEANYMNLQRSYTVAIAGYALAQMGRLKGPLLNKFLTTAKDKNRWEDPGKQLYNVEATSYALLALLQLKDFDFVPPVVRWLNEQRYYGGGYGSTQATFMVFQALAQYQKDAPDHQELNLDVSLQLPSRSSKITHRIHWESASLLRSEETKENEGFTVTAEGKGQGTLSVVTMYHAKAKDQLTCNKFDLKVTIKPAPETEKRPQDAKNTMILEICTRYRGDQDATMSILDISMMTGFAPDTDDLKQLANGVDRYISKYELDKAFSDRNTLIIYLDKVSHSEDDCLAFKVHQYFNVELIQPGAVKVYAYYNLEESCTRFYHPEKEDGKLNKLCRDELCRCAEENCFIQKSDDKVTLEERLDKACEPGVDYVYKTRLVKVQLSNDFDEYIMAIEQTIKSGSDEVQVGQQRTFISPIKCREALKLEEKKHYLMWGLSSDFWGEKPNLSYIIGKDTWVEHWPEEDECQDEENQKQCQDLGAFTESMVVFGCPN

Binder | inhibition of hemolysis IC50
B1 | < 500 nM
Ac-SEFCI[Trp(1-Me)]QDWGEHRCTEGE-{8‑aminooctanoyl-Glu-X1-NH2} (disulfide 4-14) [Compound 137] | < 100 nM
B2 | < 1000 nM
B3 | < 100 nM
B4 | < 100 nM
B5 | < 250 nM
B6 | < 100 nM
Ac-SEFCI[Trp(1-Me)]QDWGEHRCTGAESK([γGlu-Gly-γGlu-15‑carboxy‑hexadecanoyl])-NH2 (disulfide 4-14) [Compound 135] | < 100 nM
B7 | < 500 nM
B8 | < 100 nM
B9 | < 100 nM
B10 | < 100 nM
Ac-SEYCI[Trp(1-Me)]QDWGEHRC[Sar]EGEK([γGlu-Lys-γGlu-C18 diacid])-NH2 (disulfide 4-14) [Compound 116] | < 500 nM
Ac-SEFCI[Trp(1-Me)]QDWGEHRCTEGE-{8‑aminooctanoyl-X1-NH2} (disulfide 4-14) [Compound 136] | < 100 nM
